The test system of this data set is NF-kB (endogenous, A549 cells) (Homo sapiens). Nature of the data set: cell_activity. To be noted: A549 MTT, 1 pmol RNA transfected; 89% day 1; indirect readout.

In turn, “AAAAAAAAAAGAUCUUGAAACUGUUUUAAGGUUGGCCGAUCUUAAAAAA [NF-kB aptamer, circular RNA]” returned an activity (% viability day 2) of 86.

For the origin of these results see patent US20220305128.
